B1: Flag-eIF2β, wild type [S. cerevisiae] / eIF2α in yeast whole-cell extracts [yeast (endogenous in yeast whole-cell extracts)] (parent)
chain 1: MSSDLAAELGFDPALKKKKKTKKVIPDDFDAAVNGKENGSGDDLFAGLKKKKKKSKSVSADAEAEKEPTDDIAEALGELSLKKKKKKTKDSSVDAFEKELAKAGLDNVDAESKEGTPSANSSIQQEVGLPYSELLSRFFNILRTNNPELAGDRSGPKFRIPPPVCLRDGKKTIFSNIQDIAEKLHRSPEHLIQYLFAELGTSGSVDGQKRLVIKGKFQSKQMENVLRRYILEYVTCKTCKSINTELKREQSNRLFFMVCKSCGSTRSVSSIKTGFQATVGKRRRM
chain 2: MSTSHCRFYENKYPEIDDIVMVNVQQIAEMGAYVKLLEYDNIEGMILLSELSRRRIRSIQKLIRVGKNDVAVVLRVDKEKGYIDLSKRRVSSEDIIKCEEKYQKSKTVHSILRYCAEKFQIPLEELYKTIAWPLSRKFGHAYEAFKLSIIDETVWEGIEPPSKDVLDELKNYISKRLTPQAVKIRADVEVSCFSYEGIDAIKDALKSAEDMSTEQMQVKVKLVAAPLYVLTTQALDKQKGIEQLESAIEKITEVITKYGGVCNITMPPKAVTATEDAELQALLESKELDNRSDSEDDEDESDDE
B2: Flag-eIF2β, wild type [S. cerevisiae] / eIF2Bε in yeast whole-cell extracts [yeast (endogenous in yeast whole-cell extracts)] (parent)
chain 1: B1 chain 1
chain 2: MAGKKGQKKSGLGNHGKNSDMDVEDRLQAVVLTDSYETRFMPLTAVKPRCLLPLANVPLIEYTLEFLAKAGVHEVFLICSSHANQINDYIENSKWNLPWSPFKITTIMSPEARCTGDVMRDLDNRGIITGDFILVSGDVLTNIDFSKMLEFHKKMHLQDKDHISTMCLSKASTYPKTRTIEPAAFVLDKSTSRCIYYQDLPLPSSREKTSIQIDPELLDNVDEFVIRNDLIDCRIDICTSHVPLIFQENFDYQSLRTDFVKGVISSDILGKHIYAYLTDEYAVRVESWQTYDTISQDFLGRWCYPLVLDSNIQDDQTYSYESRHIYKEKDVVLAQSCKIGKCTAIGSGTKIGEGTKIENSVIGRNCQIGENIRIKNSFIWDDCIIGNNSIIDHSLIASNATLGSNVRLNDGCIIGFNVKIDDNMDLDRNTKISASPLKNAGSRMYDNESNEQFDQDLDDQTLAVSIVGDKGVGYIYESEVSDDEDSSTEACKEINTLSNQLDELYLSDDSISSATKKTKKRRTMSVNSIYTDREEIDSEFEDEDFEKEGIATVERAMENNHDLDTALLELNTLRMSMNVTYHEVRIATITALLRRVYHFIATQTLGPKDAVVKVFNQWGLLFKRQAFDEEEYIDLMNIIMEKIVEQSFDKPDLILFSALVSLYDNDIIEEDVIYKWWDNVSTDPRYDEVKKLTVKWVEWLQNADEESSSEEE

Variants of: B1
Assay: co-immunoprecipitation with FLAG affinity resin, quantified western
Settings: three biological replicates, read off a plot

| response | Variant |
| --- | --- |
| 0.94 eIF2α:eIF2β | chain 1 MSSDLAAELGFDPALKKKKKTKKVIPDDFDAAVNGKENGSGDDLFAGLKKKKKKSKSVSADAEAEKEPTDDIAEALGELSLKKKKKKTKDSSVDAFEKELAKAGLDNVDAESKEGTPSANSSIQQEVGLPYSELLSRFFNILRTNNPELAGDRSGPKFRIPPPVCLRDGKKTIFSNIQDIAEKLHRSPEHLIQYLFAELGTSGSVDGQKRLVIKGKAQSKAMENVLRRYILEYVTCKTCKSINTELKREQSNRLFFMVCKSCGSTRSVSSIKTGFQATVGKRRRM [chain 1 F217A Q221A] |
| 0.96 eIF2α:eIF2β | chain 1 MSSDLAAELGFDPALKKKKKTKKVIPDDFDAAVNGKENGSGDDLFAGLKKKKKKSKSVSADAEAEKEPTDDIAEALGELSLKKKKKKTKDSSVDAFEKELAKAGLDNVDAESKEGTPSANSSIQQEVGLPYSELLSRFFNILRTNNPELAGDRSGPKFRIPPPVCLRDGKKTIFSNIQDIAEKLHRSPEHLIQYLFAELGTAGSVDGQKRLVIAGKFQSKQMENVLRRYILEYVTCKTCKSINTELKREQSNRLFFMVCKSCGSTRSVSSIKTGFQATVGKRRRM [chain 1 S202A K214A] |

Variants of: B2
Assay: as above
Settings: three biological replicates, read off a plot

| response | Variant |
| --- | --- |
| 0.63 eIF2Bε:eIF2β | chain 1 MSSDLAAELGFDPALKKKKKTKKVIPDDFDAAVNGKENGSGDDLFAGLKKKKKKSKSVSADAEAEKEPTDDIAEALGELSLKKKKKKTKDSSVDAFEKELAKAGLDNVDAESKEGTPSANSSIQQEVGLPYSELLSRFFNILRTNNPELAGDRSGPKFRIPPPVCLRDGKKTIFSNIQDIAEKLHRSPEHLIQYLFAELGTSGSVDGQKRLVIKGKAQSKAMENVLRRYILEYVTCKTCKSINTELKREQSNRLFFMVCKSCGSTRSVSSIKTGFQATVGKRRRM [chain 1 F217A Q221A] |
| 0.84 eIF2Bε:eIF2β | chain 1 MSSDLAAELGFDPALKKKKKTKKVIPDDFDAAVNGKENGSGDDLFAGLKKKKKKSKSVSADAEAEKEPTDDIAEALGELSLKKKKKKTKDSSVDAFEKELAKAGLDNVDAESKEGTPSANSSIQQEVGLPYSELLSRFFNILRTNNPELAGDRSGPKFRIPPPVCLRDGKKTIFSNIQDIAEKLHRSPEHLIQYLFAELGTAGSVDGQKRLVIAGKFQSKQMENVLRRYILEYVTCKTCKSINTELKREQSNRLFFMVCKSCGSTRSVSSIKTGFQATVGKRRRM [chain 1 S202A K214A] |

— PMC4534855 (2015)
